Test results published in US20170028070A1.

System: HER2 epitope peptide
Details: 5'-H2N-(CH2)6; doxorubicin intercalated, Dox:aptamer 10:1; apparent Kd from doxorubicin fluorescence release upon epitope binding; Dox molar ratio 10

“AACCGCCCAAATCCCTAAGAGTCTGCACTTGTCATTTTGTATATGTATTTGGTTTTTGGCTCTCACAGACACACTACACACGCACA [Dox-loaded anti-HER2 aptamer]” was tested, and the Kd was 0.05 µM.
